Results: patent US20070036796A1

Biological target: human CCR5 (human) (UniProt P51681)
Experiment: cell-based or functional assay

Sequence of human CCR5 (human) (P51681 whole entry): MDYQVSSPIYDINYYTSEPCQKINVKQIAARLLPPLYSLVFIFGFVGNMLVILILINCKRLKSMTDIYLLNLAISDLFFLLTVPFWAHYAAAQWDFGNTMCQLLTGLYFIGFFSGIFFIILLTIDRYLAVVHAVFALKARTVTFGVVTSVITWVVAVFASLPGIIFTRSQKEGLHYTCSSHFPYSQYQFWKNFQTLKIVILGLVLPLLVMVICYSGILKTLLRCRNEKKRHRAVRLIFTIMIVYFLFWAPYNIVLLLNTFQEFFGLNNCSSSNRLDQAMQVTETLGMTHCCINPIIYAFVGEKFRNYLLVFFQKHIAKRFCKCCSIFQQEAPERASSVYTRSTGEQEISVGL

With “Pharmingen 2D7 (CD 195; Cat. Nr. 555990) (antibody)” the IC50, PhenoSenseHIV assay (ViroLogic) using JRCSF strain was 1.4 µg/ml, the IC50, inhibition of HIV growth in human PBMC, JRCSF (p24 ELISA) was 0.271 µg/mL and the IC50, inhibition of HIV growth in human PBMC, Nl-Bal (p24 ELISA) was 0.076 µg/mL.
